How the values were obtained:
hnRNPU [1] = molecular target: hnRNPU (UniProt Q00839); assay: anti-Flag co-IP, hnRNPU immunoblot; conditions: reference: wild type; sites S83,S85
hnRNPU [2] = molecular target: hnRNPU (UniProt Q00839); assay: Flag-hnRNPU co-IP, HA-FOXN3 immunoblot; conditions: reference: WT FOXN3 with HA-p38; sites S83,S85

Substance | binding against the reference (hnRNPU [1]) | binding against the reference (hnRNPU [2])
FOXN3 (from UniProt O00409) S83,85A | stronger | –
FOXN3 (from UniProt O00409) S83,85A with HA-p38 | – | stronger

Reference: publication PMC10018351
